Experimental data as given in PMC5624674.

Target: T1, λCI-CbtA fusion protein (wild-type CbtA toxin of E. coli) (E. coli), P64524
T1 chain: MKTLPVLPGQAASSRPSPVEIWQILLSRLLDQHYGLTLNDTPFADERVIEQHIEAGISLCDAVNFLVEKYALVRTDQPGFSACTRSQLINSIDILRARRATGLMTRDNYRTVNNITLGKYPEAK
Assay: two-hybrid
Conditions: remark: other sources report otherwise

B1: α-MreB fusion protein (wild-type E. coli MreB), P0A9X4 1-347 (natural protein)
chain: MLKKFRGMFSNDLSIDLGTANTLIYVKGQGIVLNEPSVVAIRQDRAGSPKSVAAVGHDAKQMLGRTPGNIAAIRPMKDGVIADFFVTEKMLQHFIKQVHSNSFMRPSPRVLVCVPVGATQVERRAIRESAQGAGAREVFLIEEPMAAAIGAGLPVSEATGSMVVDIGGGTTEVAVISLNGVVYSSSVRIGGDRFDEAIINYVRRNYGSLIGEATAERIKHEIGSAYPGDEVREIEVRGRNLAEGVPRGFTLNSNEILEALQEPLTGIVSAVMVALEQCPPELASDISERGMVLTGGGALLRNLDRLLMEETGIPVVVAEDPLTCVARGGGKALEMIDMHGGDLFSEE
  fold increase in lacZ expression: 3 fold
